Patent publication US20250304640A1 (ORIKINE BIO SL, published 2025)

Experiments:
Experiment in all cases: cell-based or functional assay
[1] = biological target: T1, IL-10 receptor (IL-10R: IL10RA and IL10RB) on HEK-Blue IL-10 reporter cells (UniProt Q13651 22-578; Q08334 20-325, limits assumed)
T1 sequence (looked up) 1: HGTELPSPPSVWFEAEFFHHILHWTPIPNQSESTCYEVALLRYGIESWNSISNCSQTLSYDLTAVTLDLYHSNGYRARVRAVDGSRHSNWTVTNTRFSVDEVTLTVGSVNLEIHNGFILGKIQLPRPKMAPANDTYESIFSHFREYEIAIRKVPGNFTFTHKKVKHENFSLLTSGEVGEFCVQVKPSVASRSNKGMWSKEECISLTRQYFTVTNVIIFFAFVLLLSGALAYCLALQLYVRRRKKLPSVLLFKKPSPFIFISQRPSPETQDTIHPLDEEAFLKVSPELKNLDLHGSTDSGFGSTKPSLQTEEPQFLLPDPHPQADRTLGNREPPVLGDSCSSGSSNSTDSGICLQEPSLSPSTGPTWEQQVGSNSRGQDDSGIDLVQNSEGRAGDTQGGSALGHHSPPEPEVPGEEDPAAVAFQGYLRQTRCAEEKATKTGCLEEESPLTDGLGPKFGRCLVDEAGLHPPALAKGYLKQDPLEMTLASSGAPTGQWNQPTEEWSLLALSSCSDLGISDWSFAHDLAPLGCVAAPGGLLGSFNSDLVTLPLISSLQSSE
T1 sequence (looked up) 2: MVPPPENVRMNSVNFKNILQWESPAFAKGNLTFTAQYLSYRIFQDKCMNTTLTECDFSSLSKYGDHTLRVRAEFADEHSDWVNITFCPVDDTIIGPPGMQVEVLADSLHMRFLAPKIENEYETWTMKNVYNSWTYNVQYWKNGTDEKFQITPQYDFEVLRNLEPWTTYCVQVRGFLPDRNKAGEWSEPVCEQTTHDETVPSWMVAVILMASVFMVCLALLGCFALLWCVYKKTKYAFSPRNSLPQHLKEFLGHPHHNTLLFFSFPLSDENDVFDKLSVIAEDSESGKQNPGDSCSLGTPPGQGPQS

[2] = biological target: T1, IL-10 receptor (IL-10R: IL10RA and …); remark: listed apart in the source
[3] = biological target: T1, IL-10 receptor (IL-10R: IL10RA and …); remark: listed apart in the source
IL10RA = biological target: T2, IL10RA (UniProt Q13651 22-578, limits assumed)
T2 sequence (looked up): T1 sequence (looked up) 1

CSF1 receptor (CSF1R) = CSF1 receptor (CSF1R) (UniProt P07333 20-972, limits assumed)
Sequence of CSF1 receptor (CSF1R) (P07333 20-972 limits assumed): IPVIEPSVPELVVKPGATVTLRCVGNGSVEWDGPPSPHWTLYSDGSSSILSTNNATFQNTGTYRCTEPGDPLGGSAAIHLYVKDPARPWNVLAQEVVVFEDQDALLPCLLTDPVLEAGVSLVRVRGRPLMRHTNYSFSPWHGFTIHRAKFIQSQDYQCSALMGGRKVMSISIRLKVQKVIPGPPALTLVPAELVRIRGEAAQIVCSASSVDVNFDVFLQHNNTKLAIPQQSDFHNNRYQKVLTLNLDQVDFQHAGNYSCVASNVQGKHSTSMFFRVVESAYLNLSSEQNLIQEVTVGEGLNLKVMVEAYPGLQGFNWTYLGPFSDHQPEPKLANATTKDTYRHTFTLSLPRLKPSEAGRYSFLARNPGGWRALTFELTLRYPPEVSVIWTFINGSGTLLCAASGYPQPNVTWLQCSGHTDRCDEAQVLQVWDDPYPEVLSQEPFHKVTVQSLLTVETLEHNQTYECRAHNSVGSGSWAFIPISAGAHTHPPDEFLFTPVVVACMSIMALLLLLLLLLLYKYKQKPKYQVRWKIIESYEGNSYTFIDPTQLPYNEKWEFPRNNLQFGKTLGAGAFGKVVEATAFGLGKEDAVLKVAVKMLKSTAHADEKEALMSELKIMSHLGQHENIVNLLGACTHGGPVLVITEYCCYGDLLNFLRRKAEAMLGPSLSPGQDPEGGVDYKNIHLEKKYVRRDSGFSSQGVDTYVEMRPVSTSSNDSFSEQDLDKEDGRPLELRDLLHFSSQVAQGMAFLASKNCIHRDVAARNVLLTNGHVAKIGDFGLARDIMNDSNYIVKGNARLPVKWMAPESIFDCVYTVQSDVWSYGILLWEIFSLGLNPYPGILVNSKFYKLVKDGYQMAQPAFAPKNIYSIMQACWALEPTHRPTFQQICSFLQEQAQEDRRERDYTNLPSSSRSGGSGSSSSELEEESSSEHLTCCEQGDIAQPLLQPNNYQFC

B1: CSF1-25AA-IL10-HiBit (ligand)
chain: EEVSEYCSHMIGSGHLQSLQRLIDSQMETSCQITFEFVDQEQLKDPVCYLKKAFLLVQDIMEDTMRFRDNTPNAIAIVQLQELSLRLKSCFTKDYEEHDKACVRTFYETPLQLLEKVKNVFNETKNLLDKDWNIFSKNCNNSFAECSSQDGGGSGGSGGSGGSGGSGGSGGSGGGRASPGQGTQSENSCTHFPGNLPNMLRDLRDAFSRVKTFFQMKDQLDNLLLKESLLEDFKGYLGCQALSEMIQFYLEEVMPQAENQDPDIKAHVNSLGENLKTLRLRLRRCHRFLPCENKSKAVEQVKNAFNKLQEKGIYKAMSEFDIFINYIEAYMTMKIRNGGVSGWRLFKKIS
EC-50 for IL10 activity, HEK-Blue IL-10 reporter cells [1]: 4.1e-10

B2: ORK10-003 (ligand)
chain: MTQSENSCTHFPGNLPNMLRDLRDAFSRVKTFFQMKDQLDNLLLKESLLEDFKGYLGCQALSEMIQFYLEEVMPQAENQDPDIKAHVNSLGENLKTLRLRLRRCHRFLPCENKSKAVEQVKNAFNKLQEKGIYKAMSEFDIFINYIEAYLYKTITPEFANMLRDLRDAFSRVKTFFQMKDQLDNLLLKESLLEDFKGYLGCQALSEMIQFYLEEVMPQAENQDPDIKAHVNSLGENLKTLRLRLRRCHRFLPCENKSKAVEQVKNAFNKLQEKGIYKAMSEFDIFINYIEAYMTM
EC-50, HEK-Blue IL-10 reporter cells [2]: 2.3e-10

B3: IL10-HiBit (ligand)
chain: SPGQGTQSENSCTHFPGNLPNMLRDLRDAFSRVKTFFQMKDQLDNLLLKESLLEDFKGYLGCQALSEMIQFYLEEVMPQAENQDPDIKAHVNSLGENLKTLRLRLRRCHRFLPCENKSKAVEQVKNAFNKLQEKGIYKAMSEFDIFINYIEAYMTMKIRNGGVSGWRLFKKIS
IL-10 EC-50, HEK-Blue IL-10 reporter cells [3]: 8e-10

B4: ORK10-003-HiBit Q38A (ligand)
chain: MTQSENSCTHFPGNLPNMLRDLRDAFSRVKTFFQMKDQLDNLLLKESLLEDFKGYLGCQALSEMIQFYLEEVMPQAENQDPDIKAHVNSLGENLKTLRLRLRRCHRFLPCENKSKAVEQVKNAFNKLQEKGIYKAMSEFDIFINYIEAYLYKTITPEFANMLRDLRDAFSRVKTFFAMKDQLDNLLLKESLLEDFKGYLGCQALSEMIQFYLEEVMPQAENQDPDIKAHVNSLGENLKTLRLRLRRCHRFLPCENKSKAVEQVKNAFNKLQEKGIYKAMSEFDIFINYIEAYMTMGGVSGWRLFKKIS
EC-50, HEK-Blue IL-10 reporter cells (IL10RA): 2.07e-10

B5: foldikine10-HiBit (ligand)
chain: MTQSENSCTHFPGNLPNMLRDLRDAFSRVKTFFQMKDQLDNLLLKESLLEDFKGYLGCQALSEMIQFYLEEVMPQAENQEPDIKAHVNSLGENLKTLRLRLRRCHRFLPCENKSKAVEQVKNAFNKLQEKGIYKAMSEFDIFINYIEAYMTMNNGGLDYLPNMLRDLRDAFSRVKTFFQMKDQLDNLLLKESLLEDFKGYLGCQALSEMIQFYLEEVMPQAENQDPDIKAHVNSLGENLKTLRLRLRRNHRFLPCENKSKAVEQVKNAFNKLQEKGIYKAMSEFDIFINYIEAYMTMKIRNGGVSGWRLFKKIS
IL-10 EC-50, HEK-Blue IL-10 reporter cells [3]: 2.14e-10

B6: ORK10-005 (ligand)
chain: MTQSENSCTHFPGNLPNMLRDLRDAFSRVKTFFQMKDQLDNLLLKESLLEDFKGYLGCQALSEMIQFYLEEVMPQAENQDPDIKAHVNSLGENLKTLRLRLRRCHRFLPCENKSKAVEQVKNAFNKLQEKGIYKAMSEFDIFINYIEAKDKDIRDGDELANMLRDLRDAFSRVKTFFQMKDQLDNLLLKESLLEDFKGYLGCQALSEMIQFYLEEVMPQAENQDPDIKAHVNSLGENLKTLRLRLRRCHRFLPCENKSKAVEQVKNAFNKLQEKGIYKAMSEFDIFINYIEAYMTM
EC-50, HEK-Blue IL-10 reporter cells [2]: 6.25e-10

B7: Foldikine10 (ligand)
chain: MTQSENSCTHFPGNLPNMLRDLRDAFSRVKTFFQMKDQLDNLLLKESLLEDFKGYLGCQALSEMIQFYLEEVMPQAENQEPDIKAHVNSLGENLKTLRLRLRRCHRFLPCENKSKAVEQVKNAFNKLQEKGIYKAMSEFDIFINYIEAYMTMNNGGLDYLPNMLRDLRDAFSRVKTFFQMKDQLDNLLLKESLLEDFKGYLGCQALSEMIQFYLEEVMPQAENQDPDIKAHVNSLGENLKTLRLRLRRNHRFLPCENKSKAVEQVKNAFNKLQEKGIYKAMSEFDIFINYIEAYMTMKIRN
EC-50, HEK-Blue IL-10 reporter cells [2]: 6.01e-10

B8: IL-10WT (wild-type human IL-10) (ligand)
chain: SPGQGTQSENSCTHFPGNLPNMLRDLRDAFSRVKTFFQMKDQLDNLLLKESLLEDFKGYLGCQALSEMIQFYLEEVMPQAENQDPDIKAHVNSLGENLKTLRLRLRRCHRFLPCENKSKAVEQVKNAFNKLQEKGIYKAMSEFDIFINYIEAYMTMKIRN
EC-50, HEK-Blue IL-10 reporter cells [2]: 8.91e-10

B9: CSF1-35AA-IL10-HiBit (ligand)
chain: EEVSEYCSHMIGSGHLQSLQRLIDSQMETSCQITFEFVDQEQLKDPVCYLKKAFLLVQDIMEDTMRFRDNTPNAIAIVQLQELSLRLKSCFTKDYEEHDKACVRTFYETPLQLLEKVKNVFNETKNLLDKDWNIFSKNCNNSFAECSSQDGGGGGSGGGGSGGSGGSGGSGGSGGSGGSGGSGGGRASPGQGTQSENSCTHFPGNLPNMLRDLRDAFSRVKTFFQMKDQLDNLLLKESLLEDFKGYLGCQALSEMIQFYLEEVMPQAENQDPDIKAHVNSLGENLKTLRLRLRRCHRFLPCENKSKAVEQVKNAFNKLQEKGIYKAMSEFDIFINYIEAYMTMKIRNGGVSGWRLFKKIS
EC-50 for IL10 activity, HEK-Blue IL-10 reporter cells [1]: 1.9e-10 | EC-50 for CSF1 activity, HEK293 CSF1R/SRE reporter (CSF1 receptor (CSF1R)): 6.5e-10

B10: ORK10-002 (ligand)
chain: MTQSENSCTHFPGNLPNMLRDLRDAFSRVKTFFQMKDQLDNLLLKESLLEDFKGYLGCQALSEMIQFYLEEVMPQAENQDPDIKAHVNSLGENLKTLRLRLRRCHRFLPCENKSKAVEQVKNAFNKLQEKGIYKAMSEFDIFINYIEAYMTMNFGGLDYLPNMLRDLRDAFSRVKTFFQMKDQLDNLLLKESLLEDFKGYLGCQALSEMIQFYLEEVMPQAENQDPDIKAHVNSLGENLKTLRLRLRRCHRFLPCENKSKAVEQVKNAFNKLQEKGIYKAMSEFDIFINYIEAYMTM
EC-50, HEK-Blue IL-10 reporter cells [2]: 3.87e-10

B11: CSF1-30AA-IL10-HiBit (ligand)
chain: EEVSEYCSHMIGSGHLQSLQRLIDSQMETSCQITFEFVDQEQLKDPVCYLKKAFLLVQDIMEDTMRFRDNTPNAIAIVQLQELSLRLKSCFTKDYEEHDKACVRTFYETPLQLLEKVKNVFNETKNLLDKDWNIFSKNCNNSFAECSSQDGGGGGSGGSGGSGGSGGSGGSGGSGGSGGGRASPGQGTQSENSCTHFPGNLPNMLRDLRDAFSRVKTFFQMKDQLDNLLLKESLLEDFKGYLGCQALSEMIQFYLEEVMPQAENQDPDIKAHVNSLGENLKTLRLRLRRCHRFLPCENKSKAVEQVKNAFNKLQEKGIYKAMSEFDIFINYIEAYMTMKIRNGGVSGWRLFKKIS
EC-50 for IL10 activity, HEK-Blue IL-10 reporter cells [1]: 2.35e-10 | EC-50 for CSF1 activity, HEK293 CSF1R/SRE reporter (CSF1 receptor (CSF1R)): 5.5e-10
